Data: US20260209316A1

Assays:
[1] = molecular target: mucin domain-deleted Zaire GP (GPdMuc) (Ebola (Zaire) virus (EBOV)) (UniProt Q05320); assay: BLI competition on Zaire GPdMuc (upper table); competitor 13C6
[2] = molecular target: mucin domain-deleted Zaire GP (GPdMuc) (Ebola (Zaire) virus (EBOV)) (UniProt Q05320); assay: BLI competition on Zaire GPdMuc (upper table); competitor 316L
[3] = molecular target: mucin domain-deleted Zaire GP (GPdMuc) (Ebola (Zaire) virus (EBOV)) (UniProt Q05320); assay: BLI competition on Zaire GPdMuc (upper table); competitor 380L
[4] = molecular target: mucin domain-deleted Zaire GP (GPdMuc) (Ebola (Zaire) virus (EBOV)) (UniProt Q05320); assay: BLI competition on Zaire GPdMuc (upper table); competitor 15H10
[5] = molecular target: mucin domain-deleted Zaire GP (GPdMuc) (Ebola (Zaire) virus (EBOV)) (UniProt Q05320); assay: BLI competition on Zaire GPdMuc (upper table); competitor mAb114
[6] = molecular target: mucin domain-deleted Zaire GP (GPdMuc) (Ebola (Zaire) virus (EBOV)) (UniProt Q05320); assay: BLI competition on Zaire GPdMuc (upper table); competitor KZ52 (self)
[7] = molecular target: mucin domain-deleted Sudan GP (GPdMuc) (Sudan virus (SUDV)) (UniProt Q7T9D9); assay: BLI competition on Sudan GPdMuc; competitor 16F6
[8] = molecular target: mucin domain-deleted Sudan GP (GPdMuc) (Sudan virus (SUDV)) (UniProt Q7T9D9); assay: BLI competition on Sudan GPdMuc; competitor 316L
[9] = molecular target: mucin domain-deleted Sudan GP (GPdMuc) (Sudan virus (SUDV)) (UniProt Q7T9D9); assay: BLI competition on Sudan GPdMuc; competitor 15H10
[10] = molecular target: mucin domain-deleted Sudan GP (GPdMuc) (Sudan virus (SUDV)) (UniProt Q7T9D9); assay: BLI competition on Sudan GPdMuc; competitor mAb166
[11] = molecular target: mucin domain-deleted Sudan GP (GPdMuc) (Sudan virus (SUDV)) (UniProt Q7T9D9); assay: BLI competition on Sudan GPdMuc (column in both tables); competitor 16F6
[12] = molecular target: mucin domain-deleted Sudan GP (GPdMuc) (Sudan virus (SUDV)) (UniProt Q7T9D9); assay: BLI competition on Sudan GPdMuc (column in both tables); competitor 316L
[13] = molecular target: mucin domain-deleted Sudan GP (GPdMuc) (Sudan virus (SUDV)) (UniProt Q7T9D9); assay: BLI competition on Sudan GPdMuc (column in both tables); competitor 15H10
[14] = molecular target: mucin domain-deleted Sudan GP (GPdMuc) (Sudan virus (SUDV)) (UniProt Q7T9D9); assay: BLI competition on Sudan GPdMuc (column in both tables); competitor mAb166

**Q.** For KZ52 (antibody), which % inhibition of binding [1] is on record?
**A.** 13%

**Q.** And the % inhibition of binding [2]?
**A.** 8%

**Q.** What about the % inhibition of binding [3] of the same substance?
**A.** 10%

**Q.** What about the % inhibition of binding [4] of the same substance?
**A.** -1%

**Q.** What about the % inhibition of binding [5] of the same substance?
**A.** 9%

**Q.** And the % inhibition of binding [6]?
**A.** 96%

**Q.** What does the source list for HIV-specific antibody VRC01?
**A.** % inhibition of binding [7]: 31%; % inhibition of binding [8]: 29.9%; % inhibition of binding [9]: -296%; % inhibition of binding [10]: -43.1%; % inhibition of binding [11]: -7.53%; % inhibition of binding [12]: 20.6%; % inhibition of binding [13]: -333%; % inhibition of binding [14]: -82.7%
